Experimental data published in patent US20210369812A1, “OSTEOINDUCTIVE PEPTIDES, COMPOSITIONS, IMPLANTS, AND METHODS OF USE” (The Board of Regents of the University of Oklahoma, priority 2018, published 2021).
“Also recorded” adds a separate entry of the source.

Legend:
BMPR1A [1] = molecular target: T1, BMPR1A (Homo sapiens, UniProt P36894); test: Biopanning of Ph.D.-12 phage library on immobilized BMPR1A-Fc; type: binding; conditions: peptide displayed on p3 of M13 phage; 3 rounds of panning
T1 construct: purchased G&P Biosciences
Protocol: (§1) The Ph.D.™-12 phage library was diluted in tris-buffered saline mixed with Tween-20 (TBS+0.1% v/v Tween-20 and abbreviated TBST) for a final concentration of 2×10^11 phage in 1 mL of TBST. The diluted library was then pipetted onto one of the wells of a 12-well poly-L-lysine plate followed by rocking the plate gently for 60 minutes at room temperature. […] This supernatant served as the starting phage library for subsequent binding selections. The phages which stuck to the plate were discarded.
(§2) This procedure is only applicable if the charge of the desired protein to be immobilized is negative, determined by checking the pI value of the protein. […]. This procedure was written for 12-well plates coated in poly-L-lysine (positively charged). Separate solutions of BMPR1A-Fc and BMPR2-Fc were prepared at 80 μg/ml in Tris-buffered saline (pH 7.5). In separate wells and on separate poly-L-lysine coated 12-well plates, 0.3 ml of each solution of receptor was added. The solutions of BMPR1A-Fc and BMPR2-Fc were swirled around the plate surface until the entire surface was wet. The plates were then incubated overnight at 4° C. with gentle agitation in a humidified container (a sealed plastic box with damp paper towels). Each individual receptor was now immobilized.
(§3) The following selection procedure is based off of the direct coating procedure outlined in the Ph.D.™-12 Phage Display Libraries instructional manual (New England Biolabs) with some alterations. This procedure was carried out after immobilizing the targets BMPR1A-Fc and BMPR2-Fc in a 12-well poly-L-lysine coated plate. A stock solution of tetracycline was prepared (20 mg/ml in 1:1 ethanol:water). The coating solution containing the target receptors was poured off followed by firmly slapping the plates face down on a clean paper towel. Each well was then filled with blocking buffer (0.1 M NaHCO3 (pH 8.6), 5 mg/mL BSA, 0.02% NaN3. Filter sterilize, store at 4° C.) and incubated for 1 hour at 4° C. The blocking solution was then poured off followed by firmly slapping the plates down against a clean paper towel. Each plate was washed rapidly 6 times with Tris-buffered saline mixed with Tween-20 (TBS+0.1% v/v Tween-20). The plate was slapped against a clean paper towel each time. 1 ml of the phage library created from the negative selection process was then pipetted onto each of the target coated wells. The plates were then rocked gently at room temperature for 60 min. The non-binding phages were then discarded by pouring off the supernatant and slapping the plate face-down on a clean paper towel. The plate was then washed 10 times with TBST followed by slapping the plate face-down on a clean paper towel each time (a clean section of paper towel was used each time to prevent cross-contamination). The bound phages were then eluted by incubating with a nonspecific disruption buffer (0.2 M Glycine-HCl (pH 2.2), 1 mg/ml bovine serum albumin (BSA) for 15 minutes. The eluate (immersed in the disruption buffer) was then pipetted into a microcentrifuge tube followed by neutralization with 150 μl of 1 M Tris-HCl (pH 9.1). A small portion (˜1 μl) of this eluate could be titered and sequenced if desired. The rest of the eluate was amplified (see amplification of phage library section). Once amplified, the eluate was also titered. Determine the concentration of amplified phages by counting the blue plaques in titering as described. Dilute the amplified library to contain 2×10^11 phages in 1 mL of TBS (as little as 10^9 plaque forming units per ml can be used if there is not enough). A second poly-L-lysine 12-well plate was then coated with the target receptors to allow for a second round of biopanning carried out using the same steps except that the Tween-20 concentration in the wash steps was raised to 0.5% (v/v). The eluate from the second round was then amplified, titered and used in an additional 3rd round of panning on newly receptor coated plates. […]

BMPR2 [2] = molecular target: T2, BMPR2 (Homo sapiens, UniProt Q13873); test: Biopanning of Ph.D.-12 phage library on immobilized BMPR2-Fc; type: binding; conditions: peptide displayed on p3 of M13 phage; 3 rounds of panning
T2 construct: purchased G&P Biosciences
T2 sequence (Q13873 27-150 limits assumed): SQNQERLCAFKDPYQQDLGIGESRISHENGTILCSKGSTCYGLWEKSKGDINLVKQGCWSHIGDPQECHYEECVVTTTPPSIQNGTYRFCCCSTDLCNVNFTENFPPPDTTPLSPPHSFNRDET
Protocol: as §1, §2, §3

BMPR2 [3] = molecular target: T2, BMPR2; test: Enzyme-linked immune sorbent assay for receptor binding (BMPR2); conditions: peptide on p3 of M13 phage; absorbance 450 nm; n=4; vs wild type phage
Text: (§4) Groups having the same lowercase letter assigned (above the bar) were not statistically different from each other. Groups having different letters assigned (above the bar) were statistically different from each other. […] The primary antibody was mouse anti-g3p (p8) IgG. The secondary antibody was anti-mouse IgG conjugated with horseradish peroxidase. The substrate, 3,3′,5,5′-Tetramethylbenzidine was detected at 450 nm after stopping the reaction with 1 M HCl.
(§5) Blocking buffer (0.1 M NaHCO3 (pH 8.6), 5 mg/ml BSA. Filter sterilized, stored at 4° C.) was prepared. TBS (50 mM Tris-HCl (pH 7.5), 150 mM NaCl, autoclaved, stored at room temperature) was prepared. Separate solutions of the target receptors were then made. For BMPR1A, a 10 μg/ml stock solution was made. For BMPR2, a 10 μg/ml solution was also made. Separate wells with n=4 for each different peptide bearing phage group were then coated with one of the receptors. […] After a brief pilot test, it should be noted that using 10^10 phage/ml was determined to work best, but other concentrations of virus also worked consistently. […] Then, […] of freshly prepared 3,3′,5,5′-Tetramethylbenzidine (TMB) was added to each well and the absorbance at 370 nm and 652 nm was monitored for 1 hour using an ELISA plate reader. […] The absorbance at 450 nm for each well was then measured.

[4] = system: human mesenchymal stem cells (hMSCs); test: Live cell binding through immunofluorescence; type: cell-based; conditions: 10^12 phages/ml
Protocol: Human mesenchymal stem cells (hMSCs) were grown to roughly 60% plate coverage in a 48-well tissue culture plate according to the company Lonza's culturing protocols. […] The hMSCs were then blocked with 0.5% BSA (dissolved in cell media) for 1 hour. The cell media for the hMSCs was then replaced with 1 ml of new cell media having of concentration of 10^12 phages/ml. Next, the plates were washed once with 400 μl of phosphate buffered saline (PBS) at a pH of 7.4. The hMSCs were then incubated with Anti-M13 Bacteriophage Coat Protein g8p antibody [RL-ph2] (ab9225) at a 1:1000 dilution in cell media (200 μl per well). The wells were then washed again with PBS (400 μl per wash). Next, the hMSCs were incubated with the secondary antibody, Goat-anti mouse AF-488 (Abcam) for 1 hour (1 ug/ml final concentration of antibody in media). The wells were then washed again with PBS (400 μl per wash). A Hoechst nuclear stain was used to stain the nuclei (PureBlu™ Hoechst 33342 Nuclear Staining Dye #1351304 from BioRad) according to the company's protocol. Cell Mask™ Orange Plasma Membrane Stain was used to stain membranes (CellMask™ Orange Plasma Membrane Stain Catalog number: C10045 from Thermo Fisher Scientific) according to the company's protocol. The phages binding to the cells were then imaged on a Nikon Eclipse Ti fluorescent microscope.

BMPR1A [5] = molecular target: T1, BMPR1A; test: Enzyme-linked immune sorbent assay for receptor binding (BMPR1A); conditions: peptide on p3 of M13 phage; absorbance 450 nm; n=4; vs wild type phage
Text: as §4
as §5, with “receptors. The coating was done by adding 100 μl of the target solution to wells of a 96-well plate followed by swirling until the surface was completely wet. The plates were then allowed to incubate overnight at 4° C. with gentle agitation in a humidified container (a plastic box lined with damp paper towels). Any excess target solution was then removed, and the plate was slapped face-down on a clean paper towel. The wells of the plate were then blocked with 200 μl of blocking buffer for 1 hour at room temperature. […] The blocking buffer was then removed from each plate followed by 5 washes with 200 μl of TBST. Each time the plate was slapped against a clean section of paper towel face-down.” for “receptors.”

T1 sequence (P36894 24-152 limits assumed): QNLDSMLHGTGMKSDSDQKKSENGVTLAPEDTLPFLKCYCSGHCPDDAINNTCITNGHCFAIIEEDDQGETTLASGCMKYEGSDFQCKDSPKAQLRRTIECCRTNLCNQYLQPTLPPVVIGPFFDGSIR

With “DYHDPSLPTLRK (Completely synthesized in the lab - Ph.D.-12 Phage Display Peptide Library Kit (New England Biolabs))” the “Binding to BMPR1A found by biopanning (frequency among sequenced plaques)” value (“Binding to BMPR1A found by biopanning” below) (BMPR1A [1]) was “discovered to bind” and the “Binding to BMPR2 found by biopanning (frequency among sequenced plaques)” value (“Binding to BMPR2 found by biopanning” below) (BMPR2 [2]) was “discovered to bind”.
For “GNNPLHVHHDKR (Completely synthesized in the lab - Ph.D.-12 Phage Display Peptide Library Kit (New England Biolabs))”, the “Binding to BMPR1A found by biopanning” value (BMPR1A [1]) was “discovered to bind” and the “Binding to BMPR2 found by biopanning” value (BMPR2 [2]) was “discovered to bind”.
“NAKYPTMRPGPK (Completely synthesized in the lab - Ph.D.-12 Phage Display Peptide Library Kit (New England Biolabs))” was tested, and the “Binding to BMPR1A found by biopanning” value (BMPR1A [1]) was “discovered to bind” and the “Binding to BMPR2 found by biopanning” value (BMPR2 [2]) was “discovered to bind”.
“NAKYPTMRPGPL (Completely synthesized in the lab - Ph.D.-12 Phage Display Peptide Library Kit (New England Biolabs))” was tested, and the “Binding to BMPR1A found by biopanning” value (BMPR1A [1]) was “discovered to bind” and the “Binding to BMPR2 found by biopanning” value (BMPR2 [2]) was “discovered to bind”.
“RDYHPRDHTATW (Completely synthesized in the lab - Ph.D.-12 Phage Display Peptide Library Kit (New England Biolabs))” was tested, and the “Binding to BMPR1A found by biopanning” value (BMPR1A [1]) was “discovered to bind”, the “Binding to BMPR2 found by biopanning” value (BMPR2 [2]) was “most frequent peptide; also recorded: discovered to bind” and the “Relative binding strength in ELISA to BMPR2” value (BMPR2 [3]) was “statistically significant binders”. For the same sequence, the “Binding of peptide-bearing phages to live hMSCs” value [4] was “bound to what appeared to be the same location as the outer membrane; also recorded: demonstrated an ability to bind to the outer membrane”.
With “TAKSLPMRPGPL (Completely synthesized in the lab - Ph.D.-12 Phage Display Peptide Library Kit (New England Biolabs))” the “Binding to BMPR1A found by biopanning” value (BMPR1A [1]) was “discovered to bind” and the “Binding to BMPR2 found by biopanning” value (BMPR2 [2]) was “discovered to bind”.
For “TAKYLPMRPGPL (Completely synthesized in the lab - Ph.D.-12 Phage Display Peptide Library Kit (New England Biolabs))”, the “Binding to BMPR1A found by biopanning” value (BMPR1A [1]) was “most frequently obtained peptide; also recorded: discovered to bind”, the “Binding to BMPR2 found by biopanning” value (BMPR2 [2]) was “discovered to bind” and the “Relative binding strength in ELISA to BMPR1A” value (BMPR1A [5]) was “best binders”.
“TSKYLTMRPGPK (Completely synthesized in the lab - Ph.D.-12 Phage Display Peptide Library Kit (New England Biolabs))” was tested, and the “Binding to BMPR1A found by biopanning” value (BMPR1A [1]) was “discovered to bind” and the “Binding to BMPR2 found by biopanning” value (BMPR2 [2]) was “discovered to bind”.
